{"source": "paper PMC9352680", "about": "“A comprehensive thermodynamic model for RNA binding by the Saccharomyces cerevisiae Pumilio protein PUF4”", "binders": {"B1": {"name": "Ib_S1_P4E.1_K4.1_C4.1_H4.1_[A4C]_A4.1_F4.1_[A9C]_T4.1 (ssRNA)", "RNA": "UCUCUUUGUCUAUUCUCUCUU"}, "B2": {"name": "Ib_S1_P4E.1_K4.1_C4.1_H4.1_[A4G]_A4.1_F4.1_[A9T]_T4.1 (ssRNA)", "RNA": "UCUCUUUGUGUAUUUUCUCUU"}, "B3": {"name": "Ib_S1_P4E.1_K4.1_C4.1_H4.1_[A4T]_A4.1_F4.1_[A9G]_T4.1 (ssRNA)", "RNA": "UCUCUUUGUUUAUUGUCUCUU"}, "B4": {"name": "Ib_S1_P4E.1_K4.1_C4.1_H4.1_[A4T]_A4.1_F4.1_[A9C]_T4.1 (ssRNA)", "RNA": "UCUCUUUGUUUAUUCUCUCUU"}, "B5": {"name": "Ic_S4_P3E.1_K3.1_C3.1_H3.1_A3.1_[T5A]_[A6T]_F3.1_[T7A]_T3.1 (ssRNA)", "RNA": "UUUGACAACUGAUCGUUCUUUCUUGUAAUAAUUCUUUCUCGAUCAGUUGUCUUU"}, "B6": {"name": "Ic_S4_P3E.1_K3.1_C3.1_H3.1_A3.1_[A6C]_F3.1_[T7G]_[A8G]_T3.1 (ssRNA)", "RNA": "B5 RNA with A28U, U29C, A30G, A31G"}, "B7": {"name": "Ic_S4_P3E.1_K3.1_C3.1_H3.1_A3.1_[T5A]_[A6T]_F3.1_[A8G]_T3.1 (ssRNA)", "RNA": "B5 RNA with A30U, A31G"}, "B8": {"name": "Ic_S4_P3E.1_K3.1_C3.1_H3.1_A3.1_[A6C]_F3.1_[A8G]_T3.1 (ssRNA)", "RNA": "B5 RNA with A28U, U29C, A30U, A31G"}, "B9": {"name": "Ic_S4_P3E.1_K3.1_C3.1_H3.1_A3.1_[A6T]_F3.1_[T7A]_[A8C]_T3.1 (ssRNA)", "RNA": "B5 RNA with A28U, A31C"}, "B10": {"name": "Ic_S4_P3E.1_K3.1_C3.1_H3.1_A3.1_[A6G]_F3.1_T3.1 (ssRNA)", "RNA": "B5 RNA with A28U, U29G, A30U"}, "B11": {"name": "Ic_S4_P3E.1_K3.1_C3.1_H3.1_A3.1_F3.1_[A8T]_T3.1 (ssRNA)", "RNA": "B5 RNA with A28U, U29A, A30U, A31U"}, "B12": {"name": "Ic_S4_P3E.1_K3.1_C3.1_H3.1_A3.1_[A6T]_F3.1_T3.1 (ssRNA)", "RNA": "B5 RNA with A28U, A30U"}, "B13": {"name": "Ic_S4_P3E.1_K3.1_C3.1_H3.1_A3.1_[A6C]_F3.1_[T7C]_[A8T]_T3.1 (ssRNA)", "RNA": "B5 RNA with A28U, U29C, A30C, A31U"}, "B14": {"name": "Ic_S4_P3E.1_K3.1_C3.1_H3.1_A3.1_[A6G]_F3.1_[T7C]_[A8T]_T3.1 (ssRNA)", "RNA": "B5 RNA with A28U, U29G, A30C, A31U"}, "B15": {"name": "Ic_S4_P3E.1_K3.1_C3.1_H3.1_A3.1_[A6C]_F3.1_[T7G]_[A8T]_T3.1 (ssRNA)", "RNA": "B5 RNA with A28U, U29C, A30G, A31U"}, "B16": {"name": "If_S4_P3E.1_K3.1_C3.1_H3.1_A3.1_F3.1_T3.1 (ssRNA)", "RNA": "B5 RNA with A28U, U29A, A30U"}, "B17": {"name": "Ic_S4_P3E.1_K3.1_C3.1_H3.1_A3.1_[A6C]_F3.1_[T7A]_[A8T]_T3.1 (ssRNA)", "RNA": "B5 RNA with A28U, U29C, A31U"}, "B18": {"name": "Ic_S4_P3E.1_K3.1_C3.1_H3.1_A3.1_[A6C]_F3.1_[T7C]_[A8G]_T3.1 (ssRNA)", "RNA": "B5 RNA with A28U, U29C, A30C, A31G"}, "B19": {"name": "Ic_S4_P3E.1_K3.1_C3.1_H3.1_A3.1_[T5A]_[A6T]_F3.1_T3.1 (ssRNA)", "RNA": "B5 RNA with A30U"}, "B20": {"name": "Ic_S4_P3E.1_K3.1_C3.1_H3.1_A3.1_[T5A]_F3.1_[A8T]_T3.1 (ssRNA)", "RNA": "B5 RNA with U29A, A30U, A31U"}, "B21": {"name": "Ic_S4_P3E.1_K3.1_C3.1_H3.1_A3.1_[A6T]_F3.1_[A8G]_T3.1 (ssRNA)", "RNA": "B5 RNA with A28U, A30U, A31G"}, "B22": {"name": "Ic_S4_P3E.1_K3.1_C3.1_H3.1_A3.1_[A6T]_F3.1_[T7A]_[A8G]_T3.1 (ssRNA)", "RNA": "B5 RNA with A28U, A31G"}, "B23": {"name": "Ic_S4_P3E.1_K3.1_C3.1_H3.1_A3.1_F3.1_[T7G]_[A8T]_T3.1 (ssRNA)", "RNA": "B5 RNA with A28U, U29A, A30G, A31U"}, "B24": {"name": "Ic_S4_P3E.1_K3.1_C3.1_H3.1_A3.1_[A6C]_F3.1_[T7A]_[A8C]_T3.1 (ssRNA)", "RNA": "B5 RNA with A28U, U29C, A31C"}, "B25": {"name": "Ic_S4_P3E.1_K3.1_C3.1_H3.1_A3.1_[A6T]_F3.1_[T7G]_[A8G]_T3.1 (ssRNA)", "RNA": "B5 RNA with A28U, A30G, A31G"}, "B26": {"name": "Ic_S4_P4E.1_K4.1_C4.1_H4.1_A4.1_[T5G]_[A6C]_[T7G]_F4.1_[T8G]_[A9C]_T4.1 (ssRNA)", "RNA": "UUUGACAACUGAUCGUUCUUUCUUGUAGCGGCUUCUUUCUCGAUCAGUUGUCUUU"}, "B27": {"name": "Ic_S4_P4E.1_K4.1_C4.1_H4.1_A4.1_[T5G]_[A6T]_[T7G]_F4.1_[T8C]_[A9T]_T4.1 (ssRNA)", "RNA": "B26 RNA with C29U, G31C, C32U"}, "B28": {"name": "Ic_S4_P4E.1_K4.1_C4.1_H4.1_A4.1_[T5G]_[A6C]_F4.1_[A9T]_T4.1 (ssRNA)", "RNA": "B26 RNA with G30U, G31U, C32U"}, "B29": {"name": "Ic_S4_P4E.1_K4.1_C4.1_H4.1_A4.1_[T5G]_[A6C]_[T7A]_F4.1_[A9C]_T4.1 (ssRNA)", "RNA": "B26 RNA with G30A, G31U"}}, "target": "T1, PUF4 RNA-binding domain (Saccharomyces cerevisiae, UniProt P25339 537-888)", "T1 sequence": "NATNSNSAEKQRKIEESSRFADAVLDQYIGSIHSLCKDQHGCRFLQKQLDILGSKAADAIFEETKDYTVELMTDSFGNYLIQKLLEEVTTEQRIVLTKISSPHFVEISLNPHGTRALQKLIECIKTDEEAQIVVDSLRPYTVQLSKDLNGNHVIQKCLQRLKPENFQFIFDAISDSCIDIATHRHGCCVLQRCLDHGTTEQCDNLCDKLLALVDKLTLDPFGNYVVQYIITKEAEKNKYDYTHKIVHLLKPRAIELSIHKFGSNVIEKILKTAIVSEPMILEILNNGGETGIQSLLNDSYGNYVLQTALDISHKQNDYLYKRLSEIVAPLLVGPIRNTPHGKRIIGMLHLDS", "experiment": "Mg; RNA-MaP; 20 mM Na-HEPES pH 7.4, 30 mM KOAc, 0.75 mM MgCl2, 0.1% Tween-20, 5% glycerol, 0.1 mg/mL BSA, 2 mM DTT; 25 C; 0.0125-409.6 nM protein", "conditions": "tags: N-His6-TEV cleaved; C-SNAP kept, Cy3B-labelled; label: tethered on chip by stalled RNA polymerase", "note": "Positions count from the first letter of the chain named. Names and notes keep the numbering of the source.", "data": [{"binder": "B1", "values": [{"measurement": "Kd", "value": 1920, "unit": "nM"}]}, {"binder": "B2", "values": [{"measurement": "Kd", "value": 33.2, "unit": "nM"}]}, {"binder": "B3", "values": [{"measurement": "Kd", "value": 163, "unit": "nM"}]}, {"binder": "B4", "values": [{"measurement": "Kd", "value": 804, "unit": "nM"}]}, {"binder": "B5", "values": [{"measurement": "Kd", "value": 126, "unit": "nM"}]}, {"binder": "B6", "values": [{"measurement": "Kd", "value": 1930, "unit": "nM"}]}, {"binder": "B7", "values": [{"measurement": "Kd", "value": 220, "unit": "nM"}]}, {"binder": "B8", "values": [{"measurement": "Kd", "value": 23.4, "unit": "nM"}]}, {"binder": "B9", "values": [{"measurement": "Kd", "value": 123, "unit": "nM"}]}, {"binder": "B10", "values": [{"measurement": "Kd", "value": 27.4, "unit": "nM"}]}, {"binder": "B11", "values": [{"measurement": "Kd", "value": 3.03, "unit": "nM"}]}, {"binder": "B12", "values": [{"measurement": "Kd", "value": 15.3, "unit": "nM"}]}, {"binder": "B13", "values": [{"measurement": "Kd", "value": 27.6, "unit": "nM"}]}, {"binder": "B14", "values": [{"measurement": "Kd", "value": 54.5, "unit": "nM"}]}, {"binder": "B15", "values": [{"measurement": "Kd", "value": 178, "unit": "nM"}]}, {"binder": "B16", "values": [{"measurement": "Kd", "value": 1.99, "unit": "nM"}]}, {"binder": "B17", "values": [{"measurement": "Kd", "value": 8.55, "unit": "nM"}]}, {"binder": "B18", "values": [{"measurement": "Kd", "value": 392, "unit": "nM"}]}, {"binder": "B19", "values": [{"measurement": "Kd", "value": 65.6, "unit": "nM"}]}, {"binder": "B20", "values": [{"measurement": "Kd", "value": 19.3, "unit": "nM"}]}, {"binder": "B21", "values": [{"measurement": "Kd", "value": 46.7, "unit": "nM"}]}, {"binder": "B22", "values": [{"measurement": "Kd", "value": 944, "unit": "nM"}]}, {"binder": "B23", "values": [{"measurement": "Kd", "value": 23.1, "unit": "nM"}]}, {"binder": "B24", "values": [{"measurement": "Kd", "value": 80.4, "unit": "nM"}]}, {"binder": "B25", "values": [{"measurement": "Kd", "value": 2130, "unit": "nM"}]}, {"binder": "B26", "values": [{"measurement": "Kd", "value": "> 2300", "unit": "nM"}]}, {"binder": "B27", "values": [{"measurement": "Kd", "value": 467, "unit": "nM"}]}, {"binder": "B28", "values": [{"measurement": "Kd", "value": 40.5, "unit": "nM"}]}, {"binder": "B29", "values": [{"measurement": "Kd", "value": 61.1, "unit": "nM"}]}]}
